# Reference: patent US20060068465
# Positions count from the first letter of the chain named.
# B1: synaptic USP (synUSP), full length (protein)
# chain: MAPRLQLEKAAWRWAETVRPEEVSQEHIETAYRIWLEPCIRGVCRRNCRGNPNCLVGIGEHIWLGEIDENSFHNIDDPNCERRKKNSFVGLTNLGASCYVNTFLQVWFLNLELRQALYLCPSTCSDYTKGDGIRGGKDYEPQTICEHLQYLFALLQNSNRRYIDPSGFVKALGLDTGQQQDAQESSKLFMSLLEDTLSKQKNPDVRNVVQQQFCGEYAYVTVCSQCGRESKLVSKFYELELNIQGHKQLTDCISEFLKEERLEGDNRYFCENCQSKQNATRKIRLLSLPCTLNLQLMRFVFDRQTGHKKKLNAYIGFSESLDMEPYVEHKGGSFVYELSAVLIHRGVSAYSGHYIAHVKDPQSGDWYKFNDEDIEKMEGKKLQLGIEEDLTEPSKSQTRKPKCGKGTHCSRNAYMLVYRLQTQEKNHTMVQVPAFLQELVDRDNSKFEEWCVEMAEMRRQSVDKGRAKHEEVKELYQRLPAGAEPYEFVSLEWLQKWLDESTPTKPIDNNACLCSHDKLHPDKISIMKRISEYAADIFYSRYGGGPRLTVKALCKDCVVERCRILRLKNQLNEDYKTVNNLLKATMKGSDGFWVGKSSLRSWRQLALEQLDEQDGEAEQSNGKINGSPFSKDESKEEKKEEEEELNFNEDILCPHGELSISENERRLVSQEAWSKLQQYFPKAPEFPSYKECCSQCKILEREGEENEALHKMIAKEQKTSLPNLFQDKNRPCLSNWPEDTDALYIVSHFFLDEWRKFVRKPARSTPVSSVGNAALLCPHGGLMFTFPSLTKEDSKLIALIWPSEWQMIQKLFVVDKVIKITRIEVGDVNPSQTQYISEPNLCPDCREGLLCQQQKDLREYTQATIYVHKVVDNKKVMKDSAPELNVSSSETEEDKEEAKPDGEKDPDFNQSNGGTKRQKTSQQGYVAYQKQVIRRSTRHRKVRGEKALLVSANQTLKELKIQIMHAFSVAPFDQNLSIDGKILNDDCATLGTLGVIPESVILLKADEPIADYAAMDDVMQVCMPEEGFKGTGLLGH
# B2: synUSP in which Cys98 was replaced with Ala (protein)
# chain: B1 chain with C98A
# B3: yeast UBP2 (protein)
# chain: MPNEDNELQKAIENHHNQLLNQDKENADRNGSVIEDLPLYGTSINQQSTPGDVDDGKHLLYPDIATNLPLKTSDRLLDDILCDTIFLNSTDPKVMQKGLQSRGILKESMLSYSTFRSSIRPNCLGSLTDQVVFQTKSEYDSISCPKYNKIHVFQAVIFNPSLAEQQISTFDDIVKIPIYHLKVSVKVRQELERLKKHVGVTQFHSLDHLHEYDRVDLSTFDSSDPNLLDYGIYVSDDTNKLILIEIFKPEFNSPEEHESFTADAIKKRYNAMCVKNESLDKSETPSQVDCFYTLFKIFKGPLTRKSKAEPTKTIDSGNLALNTHLNPEWLTSKYGFQASSEIDEETNEIFTEYVPPDMVDYVNDLETRKIRESFVRKCLQLIFWGQLSTSLLAPNSPLKNTKSVKGMSSLQTSFSTLPWFHLLGESRARILLNSNEQTHSPLDAEPHFINLSVSHYYTDRDIIRNYESLSSLDPENIGLYFDALTYIANRKGAYQLIAYCGKQDIIGQEALENALLMFKINPKECNISELNEATLLSIYKYETSNKSQVTSNHLTNLKNALRLLAKYTKSDKLKFYVDHEPYRALSQAYDTLSIDESVDEDIIKTAYSVKINDSPGLKLDCDRALYTIAISKRSLDLFNFLTEECPQFSNYYGPEKLDYQEALKLLQVNENASDETILKIFKQKWFDENVYEPDQFLILRAALTKISIERNSTLITNFLLTGTIDPNSLPPENWPTGINNIGNTCYLNSLLQYYFSIAPLRRYVLEYQKTVENFNDHLSNSGHIRRIGGREISRGEVERSIQFIYQLRNLFYAMVHTRERCVTPSKELAYLAFAPSNVEVEFEVEGNKVVDQTGVLSDSKKETTDDAFTTKIKDTSLIDLEMEDGLNGDVGTDANRKKNESNDAEVSENEDTTGLTSPTRVAKISSDQLENALEMGRQQDVTECIGNVLFQIESGSEPIRYDEDNEQYDLVKQLFYGTTKQSIVPLSATNKVRTKVERFLSLLINIGDHPKDIYDAFDSYFKDEYLTMEEYGDVIRTVAVTTFPTILQVQIQRVYYDRERLMPFKSIEPLPFKEVIYMDRYADTENPLLLAKKKETEEMKQKLKVMKNRQRELLSRDDSGLTRKDAFLESIKLLESDTIKKTPLKIEAANDVIKTLRNNVQNIDNELMKLYNDINSLEEKISHQFDDFKEYGYSLFSVFIHRGEASYGHYWIYIKDRNRNGIWRKYNDETISEVQEEEVFNFNEGNTATPYFLVYVKQGQEGDIEPLKRILK
# Target: GST-Ub52 fusion protein [GST: P08515]
# Sequence (P08515 whole entry, looked up, the tested form may be a part): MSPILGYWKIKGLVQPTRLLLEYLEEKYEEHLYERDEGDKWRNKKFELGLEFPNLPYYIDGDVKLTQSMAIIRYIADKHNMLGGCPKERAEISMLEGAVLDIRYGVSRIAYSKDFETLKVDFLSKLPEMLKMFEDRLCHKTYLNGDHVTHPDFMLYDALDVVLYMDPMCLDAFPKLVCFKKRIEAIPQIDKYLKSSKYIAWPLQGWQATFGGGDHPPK
row,Protein,"USP activity: cleavage of GST-Ub52 on co-expression in E. coli, SDS-PAGE with Coomassie staining"
1,B1,"the amount of the GST-Ub52 protein of 45 kDa decreased, and the proteolysis product of 30 kDa markedly increased along with it"
2,B2,The activity of synUSP disappeared by either replacing Cys98 with Ala
3,B3,The GST-Ub52 protein was degraded to a band of 30 kDa by the co-expression of yeast USP2
